Drawing on the supplement of paper PMC10567573, this text covers protein stability index for 29 sequences.

± gives the standard deviation.

This series can be described thus: protein stability index of a GFP-peptide fusion (GPS, HEK-293T) (PSI 1-6); higher = more stable. The note with it: c terminus: a fixed tail appended.
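Also: 24-mer peptide tiles fused after GFP, lentivirally expressed, FACS-sorted into six equal bins by GFP/DsRed ratio, decoded by Illumina sequencing, PSI is the read-weighted mean bin number.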

PRCKTTKYRNPSLKLMVNVCGHTL [MNAT1] registered a protein stability index (treatment: DMSO) of 2.39 ± 0.18 and a protein stability index (treatment: MLN4924 1 uM, 8 h) of 2.31 ± 0.23.
Consider PRELFPPLFMAAFDGRHSQTLKAM [PRAME], for which the protein stability index (treatment: DMSO) was 2.65 ± 0.41 and the protein stability index (treatment: MLN4924 1 uM, 8 h) stood at 2.69 ± 0.27.
On to PRKRRRNGNEEDNHLPPQTKRSSR [FAM104A], for which the protein stability index reads like this: (treatment: DMSO) 5.34 ± 0.16; (treatment: MLN4924 1 uM, 8 h) 5.36 ± 0.16.
Consider PRPPSNPPARGTLKTSNLPEELRK [TRAF3IP2], for which the protein stability index reads like this: (treatment: DMSO) 4.71 ± 0.2; (treatment: MLN4924 1 uM, 8 h) 4.79 ± 0.3.
The matching figures for PRPVQLDETHPYTVTSVSCCHGNT [NEK8]: 3.94 ± 0.23 and 4.02 ± 0.14.
In the case of PSALFSKIRRGQFCIPEHISPKAR [TRIB1], the protein stability index is 2.81 ± 0.37 (treatment: DMSO) and 3.06 ± 0.47 (treatment: MLN4924 1 uM, 8 h).
The matching figures for PSEWRPLSEGCRAELAETIVYARV [CCDC3]: 3.14 ± 0.32 and 2.51 ± 0.23.
The like results for PSLQPSRKLSPTEPKNYGSYSTQA [SCAMP3] were, in that order, 4.4 ± 0.35 and 4.5 ± 0.22.
The like results for PSSPLRLGSYKAQKTSRSSSIPCS [PPEF2] were, in that order, 3.86 ± 0.24 and 3.95 ± 0.21.
Regarding PSSQLMPVKKQLQGASWELQSLRP [ZNF396], the protein stability index by setting is: (treatment: DMSO) 3.66 ± 0.34; (treatment: MLN4924 1 uM, 8 h) 3.78 ± 0.25.
Regarding PTPSTPRPTPQDWLHRRAQILEIL [ADAMTS4], the protein stability index is, setting by setting: (treatment: DMSO) 2.97 ± 0.23; (treatment: MLN4924 1 uM, 8 h) 2.98 ± 0.25.
With PTYSDFCQFRPPVRVNDGGGSHPS [VDR], the protein stability index runs as follows: (treatment: DMSO) 3.9 ± 0.25; (treatment: MLN4924 1 uM, 8 h) 4.03 ± 0.18.
The like results for PVGQEIVIPFKVDTILKYLKDHFS [IQUB] were, in that order, 2.33 ± 0.73 and 1.95 ± 0.39.
The like results for PVLHPSEERAAPVLSCEAATQTER [FAM189A2] were, in that order, 5.47 ± 0.27 and 5.44 ± 0.13.
The like results for PVPPSEGKSRLSPAGEMKPMPLSE [BCL2L13] were, in that order, 5.13 ± 0.22 and 5.08 ± 0.073.
Consider PVYVSCIAQDTCTTTDHSSNPGPV [SPAG8], for which the protein stability index is, setting by setting: (treatment: DMSO) 3.75 ± 0.39; (treatment: MLN4924 1 uM, 8 h) 3.9 ± 0.33.
The matching figures for PYREDEEGAFGEHGSQGTYSNTKE [MAP2]: 5.66 ± 0.22 and 5.72 ± 0.2.
For the sequence QAIQMRLVDVACKHLTDTSHGVRN [INTS4], the protein stability index (treatment: DMSO) amounted to 2.52 ± 0.4 and the protein stability index (treatment: MLN4924 1 uM, 8 h) turned out to be 2.52 ± 0.23.
Take QARKRQEEREKEAAEQAERSQSSI [SMARCE1]: the protein stability index (treatment: DMSO) is 5.26 ± 0.71 and the protein stability index (treatment: MLN4924 1 uM, 8 h) stood at 5.702 ± 0.038.
Regarding QCPGLGPAPTPTPPGRLGAPYSEA [ZBED3], the protein stability index runs as follows: (treatment: DMSO) 4.35 ± 0.15; (treatment: MLN4924 1 uM, 8 h) 4.25 ± 0.067.
The like results for QCSQRMLSFSDALLSIIATVMILP [TMEM175] were, in that order, 3.25 ± 0.4 and 3.33 ± 0.3.
With QDLCCRAIVSCTPVHLIDKLPLPV [RAB40C], the protein stability index is, setting by setting: (treatment: DMSO) 2.4 ± 0.24; (treatment: MLN4924 1 uM, 8 h) 2.16 ± 0.18.
Regarding QDLIEDLKLARKAYHDPMLKLSIM [NET1], the protein stability index runs as follows: (treatment: DMSO) 2.33 ± 0.38; (treatment: MLN4924 1 uM, 8 h) 2.46 ± 0.26.
The like results for QDRDALHMEGLIVRERILGADNID [FEM1B] were, in that order, 4.38 ± 0.39 and 4.29 ± 0.28.
As for QEAAERESKLLRDLSAANEKNLLL [LRRC45], the protein stability index runs as follows: (treatment: DMSO) 4.37 ± 0.14; (treatment: MLN4924 1 uM, 8 h) 4.19 ± 0.13.
The matching figures for QFRLKEAFDYIKQRRSMVSPNFGF [DUSP5]: 2.19 ± 0.31 and 2.22 ± 0.17.
The matching figures for QGCPGAKKHEFLTSVLDALSTDMV [SMOC2]: 2.68 ± 0.26 and 3.07 ± 0.27.
Take QGEMDRKCKQVKEKCKEEFVEEIK [ZMYND11]: the protein stability index was 4.91 ± 0.32 (treatment: DMSO) and 5.43 ± 0.24 (treatment: MLN4924 1 uM, 8 h).
Regarding QGITMGCWDMYRHDIDCQWVDITD [LOXL2], the protein stability index (treatment: DMSO) came to 2.4 ± 0.55 and the protein stability index (treatment: MLN4924 1 uM, 8 h) worked out at 2.73 ± 0.42.
